The data set concerns the molecule itself. The experiment in a line: cryo-EM structure.

B1: GFP-HCN4ΔC (rabbit HCN4 carrying an internal deletion from residues 783 to 1064, with N-terminal decahistidine-eGFP tag) (natural protein)
chain: MDKLPPSMRKRLYSLPQQVGAKAWIMDEEEDAEEEGAGGRQDPRRRSIRLRPLPSPSPSPSAAAAAAGGAESRGAALGGAADGEGPARGAAKSSTNGDCRRFRGSLASLGSRGGGGGGGSTGGGSHGHLHDSAEERRLIAEGDASPGEDRTPPGLAAEPERPGAPAPPAASPPQVPSSCGEQRPADAAVKVEGGAAAGDQILPEAEARLGQAGFMQRQFGAMLQPGVNKFSLRMFGSQKAVEREQERVKSAGFWIIHPYSDFRFYWDLTMLLLMVGNLIIIPVGITFFKDENTTPWIVFNVVSDTFFLIDLVLNFRTGIVVEDNTDIILDPRRIKMKYLKSWFVVDFVSSIPVDYIFLIVETRIDSEVYKTARALRIVRFTKILSLLRLLRLSRLIRYIHQWEEIFHMTYDLASAVVRIVNLIGMMLLLCHWDGCLQFLVPMLQDFPDDCWVSLNNMVNNSWGKQYSYALFKAMSHMLCIGYGRQAPMGMSDVWLTMLSMIVGATCYAMFIGHATALIQSLDSSRRQYQEKYKQVEQYMSFHKLPPDTRQRIHDYYEHRYQGKMFDEESILGELSEPLREEIINFNCRKLVASMPLFANADPNFVTSMLTKLRFEVFQPGDYIIREGTIGKKMYFIQHGVVSVLTKGNKETKLADGSYFGEICLLTRGRRTASVRADTYCRLYSLSVDNFNEVLEEYPMMRRAFETVALDRLDRIGKKNSILLHKVQHDLSSGVSNYQENAIVQRIVQHDREMAHCARRAQATTPVAPAIWTPLIQAPLQAAQDLKLISASQPALPQDGAQTLRRASPHSSSGESVAALPPFPRAPGRPPGAGPGQHVTLTLPRKASSGSLPPPLSLFGPRAAPAGGPRLTAAPQREPGAKSEPVRSKLPSNL
The term stoichiometry N denotes the number of molecules, sites or subunits per partner or assembly. Take B1: the “stoichiometry N” value came to 4.

These data come from paper PMC8294335 (Molecular Cell, 2021).
